Measurements from article PMC8599580, “Focused Proteomics Analysis of Habu Snake (Protobothrops flavoviridis) Venom Using Antivenom-Based Affinity Chromatography Reveals Novel Myonecrosis-Enhancing Activity of Thrombin-Like Serine Proteases” (Frontiers in Pharmacology, 2021).

T1: [Asp49] PLA2 (Protobothrops flavoviridis, UniProt P06859 17-138)
T1 construct: hemolytic [Asp49] phospholipase A2 of Protobothrops flavoviridis; source: prepared from habu (Protobothrops flavoviridis) crude venom
T1 sequence (looked up): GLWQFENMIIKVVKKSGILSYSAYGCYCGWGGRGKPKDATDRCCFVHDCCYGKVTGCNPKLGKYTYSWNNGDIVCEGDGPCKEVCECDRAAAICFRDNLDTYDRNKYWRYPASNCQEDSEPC

B1: [Lys49]PLA2 (BPII) (natural protein)
chain: SLVQLWKMIFQETGKEAAKNYGLYGCNCGVGRRGKPKDATDSCCYVHKCCYKKVTGCNPKMDSYSYSWKNKAIVCGEKNPPCLKQVCECDKAVAICLRENLGTYNKKYTIYPKPFCKKADTC
notes: [Lys49] phospholipase A2 BPII of Protobothrops flavoviridis; also called myonecrotic [Lys49]; PLA2; source: prepared from habu (Protobothrops flavoviridis) crude venom
B2: [Lys49] PLA2 (BPII) (natural protein)
chain: B1 chain
notes: Basic protein II (BPII), [Lys49] phospholipase A2 myotoxin of Protobothrops flavoviridis venom; also called [Lys49]PLA2 myotoxin; myonecrotic [Lys49]; PLA2
B3: TLf2, thrombin-like serine protease TLSP2 (natural protein)
chain: IIGGDECNINEHRFLVALYTFRSRRLHCGGILINQEWVLSAARCNRKNIRIQLGMHSTNVINEDVQTRVPKEKFFCLSSKTHTRWNKDIMLIRLNSPVNNSTHIAPVSLPSNPPSLGSVCRVMGWGTISATKETHPDVPHCANINILDYSVCRAAYARLPATSRTLCAGILEGGKDSCKADSGGPLICNGEIQGIVSRGGHSCGQPRKPGLYTKVFDHLDWIKSIIAGNKDAICPP
notes: numbers count on: the mature protein; also called svSP02_TLf2; basic 30 kDa protein; source: purified from habu crude venom (CM-52 basic fraction #15, POROS HS column)
B4: TLf1 (flavoxobin) (enzyme, Protobothrops flavoviridis)
chain: VIGGDECNINEHPFLVALYDAWSGRFLCGGTLINPEWVLTAAHCDSKNFKMKLGAHSQKVLNEDEQIRNPKEKFICPNKKNTEVLDKDIMLIKLDSPVSYSEHIAPLSLPSSPPSVGSVCRIMGWGSITPVEETFPDVPHCANINLLDDVECKPGYPELLPEYRTLCAGVLQGGIDTCGFDSGTPLICNGQFQGIVYIGSHPCGQSRKPGIYTKVFDYNAWIQSIIAGNTAATCLP
notes: flavoxobin, thrombin-like serine protease of Protobothrops flavoviridis; also called svSP01_TLf1; flavoxovin; source: purified from habu crude venom (CM-52 flow-through, Hi-trap benzamidine column)

Experiments:
Settings in all cases: both partners purified
[1] = biological target: B4; experiment: SPR; BIAcore X; TLf1 or TLf2 immobilised on a CM5 chip by amine coupling; BPII or [Asp49] PLA2 injected as analytes (12.5-100 ug/ml) in HBS (10 mM HEPES pH 7.4, 0.15 M NaCl, 3 mM EDTA, 0.005% surfactant P-20) at 20 uL/min; nonlinear least-squares fitting with BIAevaluation
[2] = biological target: B3; experiment: as above
[3] = biological target: T2, flavoxobin (TLf1) (Protobothrops flavoviridis, UniProt P05620 25-260); experiment: SPR; BIAcore X; TLf2 or TLf1 amine-coupled on CM5 chip; BPII or [Asp49] PLA2 injected as analytes (12.5-100 ug/ml) in HBS (10 mM HEPES pH 7.4, 0.15 M NaCl, 3 mM EDTA, 0.005% P-20), 20 uL/min; unmodified CM5 as control; regeneration 10 mM HCl
T2 construct: Flavoxobin (TLf1), thrombin-like serine protease of Protobothrops flavoviridis venom; also called flavoxovin; svSP01_TLf1

[4] = biological target: T3, thrombin-like serine protease TLSP2 (TLf2) (Protobothrops flavoviridis, UniProt O13057 25-260); experiment: as above
T3 construct: also called svSP02_TLf2; basic 30 kDa protein; source: purified from habu (Protobothrops flavoviridis) crude venom (CM-52, POROS HS)

[5] = biological target: T1, [Asp49] PLA2; experiment: SPR; BIAcore X; TLf1 or TLf2 immobilised on a CM5 chip by amine coupling; BPII or [Asp49] PLA2 injected as analytes (12.5-100 ug/ml) in HBS (10 mM HEPES pH 7.4, 0.15 M NaCl, 3 mM EDTA, 0.005% surfactant P-20) at 20 uL/min; nonlinear least-squares fitting with BIAevaluation

| Binder | Ka [5] | Kd [5] | koff [5] | kon [5] | further results |
| --- | --- | --- | --- | --- | --- |
| B1 |  |  |  |  | Ka [1]: 6.56e+06 M⁻¹; koff [1]: 0.00257 s⁻¹; kon [1]: 16900 M⁻¹ s⁻¹; Ka [2]: 1.02e+07 M⁻¹; koff [2]: 0.00122 s⁻¹; kon [2]: 12500 M⁻¹ s⁻¹ |
| B2 |  |  |  |  | Kd [3]: 152 nM; Kd [4]: 97.9 nM |
| B3 | 7.9e+06 M⁻¹ | 127 nM | 0.000791 s⁻¹ | 6250 M⁻¹ s⁻¹ |  |
| B4 | 371000 M⁻¹ | 2690 nM | 0.0125 s⁻¹ | 4660 M⁻¹ s⁻¹ |  |
